Results: the supplement of paper PMC9170038

Tested on: MS2 coat protein
Test: apparent KD of MS2 coat protein; designed switch direction (-1 OFF switch, 1 ON switch): 1; higher = weaker reporter binding
Procedure, shortened: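 The reported apparent KD is a per-design median over clusters, from curve fits of normalised cluster fluorescence. Protein titrations used SNAP-549-labelled MS2 coat protein, doubled from 0.7 or 1.5 nM to 3 µM, in Tris-HCl pH 7.5 buffer with KCl, MgCl2, BSA, DTT, tRNA and Tween-20, with no input, 200 uM small-molecule ligand, or an oligonucleotide input. The RNA switches were transcribed on Illumina chips by stalled E. coli RNA polymerase.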

[1] = Eterna round: R95, input ligand: FMN 200 uM
[2] = Eterna round: R95, input ligand: microRNA oligo, concentration not stated
[3] = Eterna round: R95, input ligand: none
[4] = input ligand: microRNA oligo, concentration not stated

Row | Sequence | apparent KD of MS2 coat protein [1] | apparent KD of MS2 coat protein [2] | apparent KD of MS2 coat protein [3] | apparent KD of MS2 coat protein (input ligand: FMN 200 uM) | apparent KD of MS2 coat protein [4] | apparent KD of MS2 coat protein (input ligand: none)
1 | GAGUAGGAGUUACAGGAUAUAUGGAGGAGGACAUGAGGAUCACCCAUGUGAGAGAUGAGAGGAGGAUAGAAGGGUAAGGGAGUAA [JR_SS2_Sub028] (puzzle: Same State 2) | 24 nM | 20.6 nM | 46.2 nM |  |  | 
2 | GAGUAGUUGAAAGGAUAUGGAUUAUUGUAGGAUCCAGAAGGUUUUAACAUGAGGAUCACCCAUGUAGGACUAUAUAUGUGAAUA [Parity 96 - Jieux - Same State NG 1] (Eterna round: R96, puzzle: Same State NG 1) |  |  |  | 15.3 nM | 10.2 nM | 15.4 nM
3 | GAGUGGCAGUUAGGAUAUACAGUGAUAAUGAUAGUAGAAGGAACAGACAUGAGGAUCACCCAUGUAGGACUAAUCCAGAGAGAG [Parity 33 - Jieux - Same State NG 1] (Eterna round: R96, puzzle: Same State NG 1) |  |  |  | 30.8 nM | 29.8 nM | 34.9 nM
4 | GAGUGGCAGUUAGGAUAUACAGUGAUAAUGAUAGUAGAAGGAACUGACAUGAGGAUCACCCAUGUAGGACUAAUCCAGAGAGAG [Parity 32 - Jieux - Same State NG 1] (Eterna round: R96, puzzle: Same State NG 1) |  |  |  | 92.3 nM | 21.2 nM | 31.5 nM
5 | GAGUGGUGGAGAGGAUAUACAUUGAUAUUCACUGUAGAAGGUUCUAACAUGAGGAUCACCCAUGUAGGACUAUUCCUGAGAGUU [Parity 54 - Jieux - Same State NG 1] (Eterna round: R96, puzzle: Same State NG 1) |  |  |  | 11 nM | 8.99 nM | 14.7 nM
6 | GAGUUACUAUCUCAGGAUAUCAUGUCAAAGACAUGAGGAUCACCCAUGUACCAGGAAACUGGUUAUGAGAAGGGAGAUAGUAACA [Mat - Same State 2 - Mod - D51] (puzzle: Same State 2) | 113 nM | 9.6 nM | 14.4 nM |  |  | 
7 | GAUAGACAUGAGGAUCACCCAUGUGACAAAACCACAGGAUAUCAUGCAGGCGUACCUGCAUGAGAAGGGUGAGACU [Ceriinaqu] (puzzle: Same State 1) | 29.7 nM | 35.3 nM | 22 nM |  |  | 
8 | GAUUAACAUGAGGAUCACCCAUGUCGUAUUAUGGGAGGAUAUACGUGGACCGUAGUCCGCGUAGAAGGCCUAAUUG [JL-ss1-3.21 janelle mod] (puzzle: Same State 1) |  | 76.4 nM |  |  |  | 
9 | GCAACGUGAUUAGGAUAUGCGAAACCCAUGGAAACUACACAUGAGGAUCACCCAUGUCCAUAGCCGCAGAAGGGAUCCGGAGCA [Eternabot solution 6] (Eterna round: R96, puzzle: Same State NG 2) |  |  |  | 32.1 nM | 90.3 nM | 147 nM
10 | GCAGGACGAUAAUAUAACUUCACAUGAGGAUCACCCAUGUCUCAGGAUAUGGAUCCUAAUUGGAUCCAGAAGGGAGCGUCCUGC [Fiskers NG3ss - 34] (Eterna round: R96, puzzle: Same State NG 3) |  |  |  | 14.5 nM | 25.9 nM | 35.1 nM
11 | GCAUCACAUGAGGAUCACCCAUGUCUUCGGAGUCGAGGAUAUGGUCACUGUAAACAGUGGCCAGAAGGCGAGAUGC [SS1 - Son of Teenbexe] (puzzle: Same State 1) |  | 41.4 nM |  |  |  | 
12 | GCCAACACAUGAGGAUAUGGCACCUUAUUGGUGCCAGAAGGCAUGUCUAUUGACAUGAGGAUCACCCAUGUAUUAUAGUUGGCA [Fiskers NG1ss - 14] (Eterna round: R96, puzzle: Same State NG 1) |  |  |  | 75.2 nM | 214 nM | 1210 nM
13 | GCCAUCGAAUGAGGAUAUGGCACCGUUUCGGUGCCAGAAGGCAUGUCAAUUGACAUGAGGAUCACCCAUGUAUUAUCGAUGGCA [JL Fiskers NG1ss - 33 mod 5] (Eterna round: R96, puzzle: Same State NG 1) |  |  |  | 119 nM | 712 nM | 1640 nM
14 | GCCGCAAGGGCAGGAUAUGGGUCCAGAGUGCAAAUACACUCUGGUACAUGAGGAUCACCCAUGUCCCAGAAGGGCCCAAGCGGC [Teerledion] (Eterna round: R96, puzzle: Same State NG 2) |  |  |  | 13.9 nM | 71 nM | 127 nM
15 | GCGAAAGCGGUAGGAUAUCUAGGAUAUGGGAAGACCUAAGGUUGGAAGUCACUUCACCCAGAAGGAGAGAAGGACACCGAAAGG [pwkr ssNG2 2FMN + F9.2] (Eterna round: R96, puzzle: Same State NG 2) |  |  |  | 36.6 nM | 113 nM | 134 nM
16 | GCGAAGAGGUAAGGAUAUGCAUGGCGGAGACAUGAGGAUCACCCAUGUUGGAGACGAAAUCUAGGGUAGAAGGUACCGGGAAGC [ssng2 v2 b] (Eterna round: R96, puzzle: Same State NG 2) |  |  |  | 75.4 nM | 70.2 nM | 110 nM
17 | GCGGAACAGGCCGACAUGAGGAUCACCCAUGUGGCCUCAUGUCAGGAUAUCGGGAAGAAGAAAACCGAGAAGGGACGGUGACGC [AK SSNG3-V2-33.2] (Eterna round: R96, puzzle: Same State NG 3) |  |  |  | 23.4 nM | 9.43 nM | 10.1 nM
18 | GCGGAACCUGACAUGAGGAUCACCCAUGUUCCGGAAACGGCACAGGAUAUCUGUCCGAAAAGGUCAGAGAAGGGUGUAAACCGC [Fiskers NG3ss - 97] (Eterna round: R96, puzzle: Same State NG 3) |  |  |  | 29 nM | 325 nM | 210 nM
19 | GCGGACCUCACAUGAGGAUCACCCAUGUUGCGGAGACGCAAUGAGGAUAUCGAUGGGUUUCCCGUCGAGAAGGCAUAAAUCCGC [JL SSNG3 3.93 mod 4] (Eterna round: R96, puzzle: Same State NG 3) |  |  |  | 109 nM | 44.5 nM | 56.6 nM
20 | GCUACAUGAGGAUCACCCAUGUGUGCGUGGGAGUGAGUGGCUUAGGAUAUCUAUGACUUGAGUUGAGAGAAGGAGGAUUGCUGU [SS-NG3-LRO12] (Eterna round: R96, puzzle: Same State NG 3) |  |  |  | 105 nM | 82.6 nM | 118 nM
21 | GCUACGGCAGUAGGAUAUGUAGGAUAUGGCGAGAGCUAAGCUUGGAAGUCACUUCAGCCAGAAGGACAGAAGGACACCGUGAGG [pwkr ssNG2 2FMN + F9.16] (Eterna round: R96, puzzle: Same State NG 2) |  |  |  | 125 nM | 22.5 nM | 24.7 nM
22 | GCUAGAAAUAAAGCCAACAUGAGGAUCACCCAUGUAUGUUGGUAGGAUAUCGUAUGCAAAGCAUACGAGAAGGGCUAAUCUAGC [Mat - Same State NG 3 - JL Mod - D66] (Eterna round: R96, puzzle: Same State NG 3) |  |  |  | 90.8 nM | 57.4 nM | 90.2 nM
23 | GCUAGUAAAAUUGCUAACAUGAGGAUCACCCAUGUAUGUUGGCAGGAUAUCGUUUGCAAAGCAAACGAGAAGGGCUAAACUAGC [Mat - Same State NG 3 - JL Mod - D15] (Eterna round: R96, puzzle: Same State NG 3) |  |  |  | 30.2 nM | 47.5 nM | 86.8 nM
24 | GCUCGAAUCACAACCAACAUGAGGAUCACCCAUGUGUGUUGGUAGGAUAUCGUUUCUAAGGGAAACGAGAAGGGCCGAACGAGC [SameState NG3 #8] (Eterna round: R96, puzzle: Same State NG 3) |  |  |  | 18.9 nM | 12.4 nM | 21.7 nM
25 | GCUCGAUGAGCGAUUUACAUGAGGAUCACCCAUGUACGUGGGCAGGAUAUUUACGUGCGGUGUGUAGAGAAGGGCCCAUCGAGC [SameState NG3 #71] (Eterna round: R96, puzzle: Same State NG 3) |  |  |  | 62.5 nM | 206 nM | 332 nM
26 | GCUCGAUGUGUUGUCUACAUGAGGAUCACCCAUGUAGGUGCGGAGGAUAUCUACGUGCUUUAUGUAGAGAAGGUCGUAUCGAGC [SameState NG3 #86] (Eterna round: R96, puzzle: Same State NG 3) |  |  |  | 21.5 nM | 54.3 nM | 71.4 nM
27 | GCUCGCACGAUGACCCACAUGAGGAUCACCCAUGUGCGUGGGCAGGAUAUCUAGAUUAAGGAUGUAGAGAAGGGUUGAGCGAGC [SameState NG3 #25] (Eterna round: R96, puzzle: Same State NG 3) |  |  |  | 555 nM | 136 nM | 302 nM
28 | GCUCGCACGAUGACCCACAUGAGGAUCACCCAUGUGCUUGGGCAGGAUAUCUAGAUUAAGGAUGUAGAGAAGGGUUGAGCGAGC [SameState NG3 #27] (Eterna round: R96, puzzle: Same State NG 3) |  |  |  | 308 nM | 113 nM | 230 nM
29 | GCUCGCGGCGCAGGAUAUGGGUGCCUGUACAUGAGGAUCACCCAUGUUAAGGGACGGAAAACGAACCAGAAGGGCGUCGCAAGC [Zaorquor] (Eterna round: R96, puzzle: Same State NG 2) |  |  |  | 56 nM | 167 nM | 140 nM
30 | GCUCGGACGAUGACCCACAUGAGGAUCACCCAUGUGCGUGGGCAGGAUAUCUAGAUUAAGGAUGUAGAGAAGGGUCGACCGAGC [SameState NG3 #30] (Eterna round: R96, puzzle: Same State NG 3) |  |  |  | 415 nM | 58.4 nM | 386 nM
